Target: IL-1Rrp1 and mouse ACPL polypeptide coexpressed in transfected cells (IL-18 receptor) (mouse)
Assay: cell-based or functional assay

Chain of IL-1Rrp1 and mouse ACPL polypeptide coexpressed in transfected cells (IL-18 receptor) (mouse) (Q9Z2B1 15-614): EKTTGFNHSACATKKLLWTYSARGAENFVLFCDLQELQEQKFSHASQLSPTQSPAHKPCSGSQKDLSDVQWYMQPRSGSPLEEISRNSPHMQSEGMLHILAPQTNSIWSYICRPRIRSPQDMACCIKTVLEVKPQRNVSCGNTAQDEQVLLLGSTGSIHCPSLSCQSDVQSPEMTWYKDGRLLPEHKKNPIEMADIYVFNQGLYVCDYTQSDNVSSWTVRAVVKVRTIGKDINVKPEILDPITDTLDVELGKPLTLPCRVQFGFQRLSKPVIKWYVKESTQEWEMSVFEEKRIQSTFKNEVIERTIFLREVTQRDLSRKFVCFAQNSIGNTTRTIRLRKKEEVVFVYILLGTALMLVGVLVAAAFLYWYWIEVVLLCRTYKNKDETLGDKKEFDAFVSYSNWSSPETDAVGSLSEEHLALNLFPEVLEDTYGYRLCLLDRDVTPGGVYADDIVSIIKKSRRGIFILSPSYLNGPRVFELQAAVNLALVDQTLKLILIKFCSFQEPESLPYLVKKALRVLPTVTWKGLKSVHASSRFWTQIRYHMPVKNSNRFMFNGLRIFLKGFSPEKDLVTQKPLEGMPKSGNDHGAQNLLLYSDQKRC

Q: Which induction of the NFkB-linked gene (NFkB-Luc luciferase reporter) in COS cells does the source give for “murine IL-18 (PeproTech) (from UniProt P70380 36-192) (ligand)” here?
A: Its induction of the NFkB-linked gene (NFkB-Luc luciferase reporter) in COS cells is 10 fold.

Q: What about the induction of the NFkB-linked gene (NFkB-Luc luciferase reporter) in S49 cells of the same substance?
A: Its induction of the NFkB-linked gene (NFkB-Luc luciferase reporter) in S49 cells is 300 fold.

From US20040248254A1
